Drawing on paper PMC12548092, “Exploring Helical Fraying Linked to Dynamics and Catalysis in Adenylate Kinase” (Biochemistry, 2025), this text covers Km, kcat and kcat/Km for one protein.

Substrate in this data set: Nc1ncnc2c1ncn2[C@@H]1O[C@H](COP(=O)(O)OP(=O)(O)OP(=O)(O)O)[C@@H](O)[C@H]1O
As to the kind of experiment: purified protein. Particulars: varied substrate not named in table (text: substrates ATP and AMP).

B1: AKeco (Escherichia coli K-12; K47A) (protein)
chain: MRIILLGAPGAGKGTQAQFIMEKYGIPQISTGDMLRAAVKSGSELGAQAKDIMDAGKLVTDELVIALVKERIAQEDCRNGFLLDGFPRTIPQADAMKEAGINVDYVLEFDVPDELIVDRIVGRRVHAPSGRVYHVKFNPPKVEGKDDVTGEELTTRKDDQEETVRKRLVEYHQMTAPLIGYYSKEAEAGNTKYAKVDGTKPVAEVRADLEKILG
A word on the Km: it is the substrate concentration at which the rate is half of its maximum. For orientation: kcat means the maximal rate divided by the concentration of active sites. The term kcat/Km denotes the second-order rate constant that governs catalysis at low substrate concentration. Take B1: the Michaelis-Menten constant (Km) amounted to 116 ± 8 µM, the kcat turned out to be 464 s⁻¹ and the kcat/Km was 4e+06 M⁻¹ s⁻¹.
